The target of test [1] is dynein (UniProt Q14204).
The target in test [2] is dynein (UniProt Q14204). This is another data set of the same source.
In test [3] the target is dynein (UniProt Q14204). This is another data set of the same source.

Bounds are passed on as bounds.

“Full-length NuMA (from UniProt Q14980 1-2115) (natural protein)”: the frequency of processive runs of DDN complexes, against NuMA 1-705 under the same conditions (fold less frequent) with dynein [1] turned out to be 10. Take “NuMA 1-1699 (from UniProt Q14980 1-1699) (domain or fragment)”: the run frequency of DDN complexes in single-molecule motility assays, against the shorter NuMA fragments in the test with dynein [2] came to 5 fold lower. “NuMA FL S1969D (from UniProt Q14980 1-2115) (natural protein)” had a run frequency of DDN complexes, against wild-type NuMA FL (fold increase) in the test with dynein [3] of less than 4. The same measure, in the same setting: as for “NuMA FL T2055D (from UniProt Q14980 1-2115) (natural protein)”, the figure is less than 4.
